Binding result and binding signal data for one molecule are collected here from paper PMC8602370, “HPF1 dynamically controls the PARP1/2 balance between initiating and elongating ADP-ribose modifications”.

For one data set, the target named is PARP1 WT (UniProt P09874 1-1014). Put plainly: fluorescence polarization; without HPF1; Kd only in Fig. 6f; SPR: 25 mM HEPES pH 7.4, 250 mM NaCl, 0.1 mM TCEP, 1 mM EDTA, 0.05% Tween20 (+/- 5 uM EB47); FP: 5 nM probe, 1.56-400 nM PARP1, buffer not stated; HXMS: 10 mM HEPES pD 7.0, 150 mM NaCl, RT. The conditions noted are these: protein: recombinant; tags: N-terminal His6; label: internal FAM (GCTGAGC FAM-TTCTGG...); dumbbell, two hairpins, central nick. For orientation: In fluorescence polarisation assays a small probe gives low polarisation when free and higher when bound to something large.

In a further data set the target is PARP1 R865A;HPF1 (human?;human, UniProt P09874;Q9NWY4 1-1014;1-346, R865A|). Put plainly: fluorescence polarization; 20 uM HPF1; no further increase vs R865A alone (P=0.087, ns); SPR: 25 mM HEPES pH 7.4, 250 mM NaCl, 0.1 mM TCEP, 1 mM EDTA, 0.05% Tween20 (+/- 5 uM EB47); FP: 5 nM probe, 1.56-400 nM PARP1, buffer not stated; HXMS: 10 mM HEPES pD 7.0, 150 mM NaCl, RT. The conditions noted are these: protein: recombinant;recombinant; tags: N-terminal His6;none (SMT sumo-like His-tag removed with ULP1); copies: 1;1; label: internal FAM (GCTGAGC FAM-TTCTGG...); dumbbell, two hairpins, central nick.

In another data set the target is PARP1 R865A (UniProt P09874 1-1014, R865A). Put plainly: fluorescence polarization; without HPF1; P=0.000039; SPR: 25 mM HEPES pH 7.4, 250 mM NaCl, 0.1 mM TCEP, 1 mM EDTA, 0.05% Tween20 (+/- 5 uM EB47); FP: 5 nM probe, 1.56-400 nM PARP1, buffer not stated; HXMS: 10 mM HEPES pD 7.0, 150 mM NaCl, RT. The conditions noted are these: protein: recombinant; tags: N-terminal His6; label: internal FAM (GCTGAGC FAM-TTCTGG...); dumbbell, two hairpins, central nick.

A further data set deals with PARP1 WT;HPF1 (human?;human, UniProt P09874;Q9NWY4 1-1014;1-346, |). Put plainly: fluorescence polarization; 20 uM HPF1; P=0.014; SPR: 25 mM HEPES pH 7.4, 250 mM NaCl, 0.1 mM TCEP, 1 mM EDTA, 0.05% Tween20 (+/- 5 uM EB47); FP: 5 nM probe, 1.56-400 nM PARP1, buffer not stated; HXMS: 10 mM HEPES pD 7.0, 150 mM NaCl, RT. The conditions noted are these: protein: recombinant;recombinant; tags: N-terminal His6;none (SMT sumo-like His-tag removed with ULP1); copies: 1;1; label: internal FAM (GCTGAGC FAM-TTCTGG...); dumbbell, two hairpins, central nick.
Sequence of PARP1 WT;HPF1 (P09874 whole entry, chain 1 of 2): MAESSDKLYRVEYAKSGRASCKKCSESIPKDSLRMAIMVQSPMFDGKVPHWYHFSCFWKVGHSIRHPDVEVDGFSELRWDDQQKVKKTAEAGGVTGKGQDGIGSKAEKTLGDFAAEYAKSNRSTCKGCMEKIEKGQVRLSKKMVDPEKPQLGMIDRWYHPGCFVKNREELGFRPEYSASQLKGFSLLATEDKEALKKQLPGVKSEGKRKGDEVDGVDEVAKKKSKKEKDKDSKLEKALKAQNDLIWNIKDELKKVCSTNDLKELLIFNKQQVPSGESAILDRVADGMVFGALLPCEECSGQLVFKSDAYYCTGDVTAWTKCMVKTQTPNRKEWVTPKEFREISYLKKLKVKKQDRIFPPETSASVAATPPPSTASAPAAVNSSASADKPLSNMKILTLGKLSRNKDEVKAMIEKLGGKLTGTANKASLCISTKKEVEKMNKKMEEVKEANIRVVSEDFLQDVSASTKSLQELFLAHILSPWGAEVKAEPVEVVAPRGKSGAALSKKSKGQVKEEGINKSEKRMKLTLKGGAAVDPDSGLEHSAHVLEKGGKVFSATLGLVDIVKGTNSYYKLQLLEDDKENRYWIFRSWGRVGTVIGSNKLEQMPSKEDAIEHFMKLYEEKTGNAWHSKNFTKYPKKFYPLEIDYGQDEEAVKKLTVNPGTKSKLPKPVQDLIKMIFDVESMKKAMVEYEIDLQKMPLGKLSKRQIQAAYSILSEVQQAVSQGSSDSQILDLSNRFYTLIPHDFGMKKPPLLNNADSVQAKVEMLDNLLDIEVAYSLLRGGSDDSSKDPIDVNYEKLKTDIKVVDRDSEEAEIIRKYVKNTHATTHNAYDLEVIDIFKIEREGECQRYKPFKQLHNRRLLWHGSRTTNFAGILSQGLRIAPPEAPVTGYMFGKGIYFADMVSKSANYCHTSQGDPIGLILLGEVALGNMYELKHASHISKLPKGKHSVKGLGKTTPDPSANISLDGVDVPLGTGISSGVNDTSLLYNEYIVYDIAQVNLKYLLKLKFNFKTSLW
Sequence of PARP1 WT;HPF1 (Q9NWY4 whole entry, chain 2 of 2): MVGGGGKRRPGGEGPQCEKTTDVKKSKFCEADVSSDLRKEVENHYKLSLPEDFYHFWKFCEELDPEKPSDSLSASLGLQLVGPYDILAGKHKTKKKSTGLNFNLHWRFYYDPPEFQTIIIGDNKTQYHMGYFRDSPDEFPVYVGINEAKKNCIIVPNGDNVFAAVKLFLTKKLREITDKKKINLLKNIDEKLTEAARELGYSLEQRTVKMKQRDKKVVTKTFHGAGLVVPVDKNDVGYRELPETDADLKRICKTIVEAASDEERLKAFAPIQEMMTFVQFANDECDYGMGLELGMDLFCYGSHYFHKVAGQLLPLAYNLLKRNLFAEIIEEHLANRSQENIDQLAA

Sequence of PARP1 WT (P09874 whole entry): as the sequence (P09874 whole entry, chain 1 of 2) above
Sequence of PARP1 R865A (P09874 whole entry R865A): as the sequence (P09874 whole entry, chain 1 of 2) above, with R865A counted along it
Sequence of PARP1 R865A;HPF1 (P09874 whole entry R865A, chain 1 of 2): as the sequence (P09874 whole entry, chain 1 of 2) above, with R865A counted along it
Sequence of PARP1 R865A;HPF1 (Q9NWY4 whole entry, chain 2 of 2): as the sequence (Q9NWY4 whole entry, chain 2 of 2) above

Regarding GCTGAGCTTCTGGTGAAGCTCAGCTCGCGGCAGCTGGTGCTGCCGCGA (structured_DNA) [FAM dumbbell with central nick (FP)], the binding result in the data set with PARP1 WT and with PARP1 R865A;HPF1 was “binds” in each case. Besides, the figures for the binding signal in the data set with PARP1 R865A and with PARP1 WT;HPF1 were 4 fold higher affinity than PARP1 WT and ~2 fold higher affinity than PARP1 WT alone, respectively.
